The supplement of paper PMC7877785
± gives the uncertainty stated by the source.

Assay: self-splicing fitness, log relative to wild type (ln ratio); higher = more splicing; Tetrahymena group I intron in knt gene, E. coli kanamycin selection, DiMSum; sequences stand for … in CUCUCU…GGAGGGAAAAGUUAUCAGGCAUGCACCUGGUAGCUAGUCUUUAAACCAAUAGAUUGCAUCGGUUUAAAAGGCAAGACCGUCAAAUUGCGGGAAAGGGGUCAACAGCCGUUCAGUACCAAGUCUCAGGGGAAACUUUGAGAUGGCCUUGCAAAGGGUAUGGUAAUAAGCUGACGGACAUGGUCCUAACCACGCAGCCAAGUCCUAAGUCAACAGAUCUUCUGUUGAUAUGGAUGCAGUUCACAGACUAAAUGUCGGUCGGGGAAGAUGUAUUCUUCUCAUAAGAUAUAGUCGGACCUCUCCUUAAUGGGAGCUAGCGGAUGAAGUGAUGCAACACUGGAGCCGCUGGGAACUAAUUUGUAUGCGAAAGUAUAUUGAUUAGUUUUGGAGUACUCGUGGUCG
Procedure, shortened: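 A randomised library covering all eight P1ex-region intron nucleotides was built with the intron in the knt kanamycin-resistance gene on pET-22b(+) and held in E. coli BL21(DE3). Cells were grown overnight at 37°C or 30°C on LB agar, with or without 25 μg/mL kanamycin, plus 100 μg/mL carbenicillin, 50 μM IPTG and 0.2% rhamnose, and pooled colonies were amplicon-sequenced on an Illumina HiSeq 2500. DiMSum fitness is the error-weighted combination of wild-type-normalised replicate fold changes, kanamycin versus none.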

CAGAAGCAAUAUUACGUCAA
self-splicing fitness (ln) (30 °C): -2.46 ± 0.27
self-splicing fitness (ln) (37 °C): -2.24 ± 0.26

CAGAAGCAAUAUUACGUGAA
self-splicing fitness (ln) (30 °C): -3.07 ± 0.13
self-splicing fitness (ln) (37 °C): -1.16 ± 0.12

CAGAAGCAAUAUUACGUGGG
self-splicing fitness (ln) (30 °C): -3.34 ± 0.17
self-splicing fitness (ln) (37 °C): -2.6 ± 0.16

CAGAAGCAAUAUUACGUGUG
self-splicing fitness (ln) (30 °C): -3.01 ± 0.074
self-splicing fitness (ln) (37 °C): -2.19 ± 0.082

CAGAAGCAAUAUUACGUUCA
self-splicing fitness (ln) (30 °C): -2.03 ± 0.14
self-splicing fitness (ln) (37 °C): -0.728 ± 0.1

CAGAAGCAAUAUUACGUUGA
self-splicing fitness (ln) (30 °C): -2.84 ± 0.2
self-splicing fitness (ln) (37 °C): -1.53 ± 0.15

CAGAAGCAAUAUUACGUUGU
self-splicing fitness (ln) (30 °C): -3.38 ± 0.13
self-splicing fitness (ln) (37 °C): -2.81 ± 0.15

CAGCAGCAAUAUUACGAAGA
self-splicing fitness (ln) (30 °C): -2.72 ± 0.31
self-splicing fitness (ln) (37 °C): -2.6 ± 0.38

CAGCAGCAAUAUUACGAAUC
self-splicing fitness (ln) (30 °C): -2.38 ± 0.27
self-splicing fitness (ln) (37 °C): -2.33 ± 0.4

CAGCAGCAAUAUUACGACUU
self-splicing fitness (ln) (30 °C): -0.431 ± 0.068
self-splicing fitness (ln) (37 °C): 0.69 ± 0.083

CAGCAGCAAUAUUACGAGCG
self-splicing fitness (ln) (30 °C): -0.131 ± 0.053
self-splicing fitness (ln) (37 °C): -0.0622 ± 0.066

CAGCAGCAAUAUUACGAGUA
self-splicing fitness (ln) (30 °C): -3.05 ± 0.19
self-splicing fitness (ln) (37 °C): -1.77 ± 0.18

CAGCAGCAAUAUUACGAGUU
self-splicing fitness (ln) (30 °C): -3.95 ± 0.2
self-splicing fitness (ln) (37 °C): -2.15 ± 0.13

CAGCAGCAAUAUUACGCGAG
self-splicing fitness (ln) (30 °C): -2.74 ± 0.15
self-splicing fitness (ln) (37 °C): -1.7 ± 0.15

CAGCAGCAAUAUUACGCGCG
self-splicing fitness (ln) (30 °C): -1.63 ± 0.099
self-splicing fitness (ln) (37 °C): -1.3 ± 0.14

CAGCAGCAAUAUUACGCGUA
self-splicing fitness (ln) (30 °C): -1.87 ± 0.083
self-splicing fitness (ln) (37 °C): -1.05 ± 0.075

CAGCAGCAAUAUUACGCUGU
self-splicing fitness (ln) (30 °C): -2.84 ± 0.22
self-splicing fitness (ln) (37 °C): -2.36 ± 0.24

CAGCAGCAAUAUUACGGAUC
self-splicing fitness (ln) (30 °C): -3.6 ± 0.36
self-splicing fitness (ln) (37 °C): -1.37 ± 0.26

CAGCAGCAAUAUUACGGGAC
self-splicing fitness (ln) (30 °C): -3.71 ± 0.22
self-splicing fitness (ln) (37 °C): -2.46 ± 0.27

CAGCAGCAAUAUUACGGUGG
self-splicing fitness (ln) (30 °C): -1.17 ± 0.067
self-splicing fitness (ln) (37 °C): -0.196 ± 0.088

CAGCAGCAAUAUUACGUCAG
self-splicing fitness (ln) (30 °C): -0.347 ± 0.05
self-splicing fitness (ln) (37 °C): -0.265 ± 0.06

CAGCAGCAAUAUUACGUGUC
self-splicing fitness (ln) (30 °C): -3.31 ± 0.15
self-splicing fitness (ln) (37 °C): -2.79 ± 0.18

CAGCAGCAAUAUUACGUGUG
self-splicing fitness (ln) (30 °C): -2.51 ± 0.077
self-splicing fitness (ln) (37 °C): -1.32 ± 0.088

CAGCAGCAAUAUUACGUUCU
self-splicing fitness (ln) (30 °C): -2.35 ± 0.072
self-splicing fitness (ln) (37 °C): -1.4 ± 0.081

CAGCAGCAAUAUUACGUUGC
self-splicing fitness (ln) (30 °C): -2.61 ± 0.27
self-splicing fitness (ln) (37 °C): -2.11 ± 0.2

CAGGAGCAAUAUUACGAUAA
self-splicing fitness (ln) (30 °C): -3.33 ± 0.2
self-splicing fitness (ln) (37 °C): -1.88 ± 0.16

CAGGAGCAAUAUUACGAUAC
self-splicing fitness (ln) (30 °C): -2.81 ± 0.4

CAGGAGCAAUAUUACGAUCA
self-splicing fitness (ln) (30 °C): -1.84 ± 0.16
self-splicing fitness (ln) (37 °C): -2.74 ± 0.28

CAGGAGCAAUAUUACGCAGG
self-splicing fitness (ln) (30 °C): -2.36 ± 0.078
self-splicing fitness (ln) (37 °C): -1.37 ± 0.076

CAGGAGCAAUAUUACGCCGC
self-splicing fitness (ln) (30 °C): -2.74 ± 0.25
self-splicing fitness (ln) (37 °C): -1.58 ± 0.46

CAGGAGCAAUAUUACGCGUA
self-splicing fitness (ln) (30 °C): -2.85 ± 0.16
self-splicing fitness (ln) (37 °C): -2.03 ± 0.18

CAGGAGCAAUAUUACGCGUG
self-splicing fitness (ln) (30 °C): -3.2 ± 0.16
self-splicing fitness (ln) (37 °C): -2.42 ± 0.17

CAGGAGCAAUAUUACGUAGA
self-splicing fitness (ln) (30 °C): -3.42 ± 0.28
self-splicing fitness (ln) (37 °C): -1.56 ± 0.21

CAGGAGCAAUAUUACGUAUU
self-splicing fitness (ln) (30 °C): -2.97 ± 0.21
self-splicing fitness (ln) (37 °C): -2.2 ± 0.18

CAGGAGCAAUAUUACGUCGC
self-splicing fitness (ln) (30 °C): -3.25 ± 0.34
self-splicing fitness (ln) (37 °C): -1.6 ± 0.29

CAGGAGCAAUAUUACGUGUA
self-splicing fitness (ln) (30 °C): -4.13 ± 0.27
self-splicing fitness (ln) (37 °C): -2.83 ± 0.25

CAGGAGCAAUAUUACGUUGC
self-splicing fitness (ln) (37 °C): -2.26 ± 0.28

CAGUAGCAAUAUUACGAAAG
self-splicing fitness (ln) (30 °C): -0.623 ± 0.099
self-splicing fitness (ln) (37 °C): -0.726 ± 0.14

CAGUAGCAAUAUUACGAACG
self-splicing fitness (ln) (30 °C): -0.0483 ± 0.12
self-splicing fitness (ln) (37 °C): -0.375 ± 0.14

CAGUAGCAAUAUUACGAAUA
self-splicing fitness (ln) (30 °C): -4.27 ± 0.43
self-splicing fitness (ln) (37 °C): -1.71 ± 0.2

CAGUAGCAAUAUUACGAGAA
self-splicing fitness (ln) (37 °C): -3.36 ± 0.46

CAGUAGCAAUAUUACGAGUU
self-splicing fitness (ln) (30 °C): -3.52 ± 0.18
self-splicing fitness (ln) (37 °C): -2.06 ± 0.15

CAGUAGCAAUAUUACGAUUA
self-splicing fitness (ln) (30 °C): -2.16 ± 0.13
self-splicing fitness (ln) (37 °C): -1.73 ± 0.11

CAGUAGCAAUAUUACGCAAC
self-splicing fitness (ln) (37 °C): -1.53 ± 0.36

CAGUAGCAAUAUUACGCAAG
self-splicing fitness (ln) (30 °C): -1.07 ± 0.12
self-splicing fitness (ln) (37 °C): -0.553 ± 0.17

CAGUAGCAAUAUUACGCACA
self-splicing fitness (ln) (30 °C): -1.88 ± 0.14
self-splicing fitness (ln) (37 °C): -0.579 ± 0.18

CAGUAGCAAUAUUACGCAGA
self-splicing fitness (ln) (30 °C): -2.68 ± 0.37
self-splicing fitness (ln) (37 °C): -2.43 ± 0.3

CAGUAGCAAUAUUACGCCAG
self-splicing fitness (ln) (30 °C): -0.7 ± 0.1
self-splicing fitness (ln) (37 °C): -0.109 ± 0.15

CAGUAGCAAUAUUACGCCGU
self-splicing fitness (ln) (30 °C): -2.93 ± 0.36
self-splicing fitness (ln) (37 °C): -0.37 ± 0.19

CAGUAGCAAUAUUACGCGCA
self-splicing fitness (ln) (30 °C): -1.08 ± 0.074
self-splicing fitness (ln) (37 °C): -0.617 ± 0.085

CAGUAGCAAUAUUACGCGGA
self-splicing fitness (ln) (30 °C): -2.93 ± 0.24
self-splicing fitness (ln) (37 °C): -1.64 ± 0.15

CAGUAGCAAUAUUACGCGGG
self-splicing fitness (ln) (30 °C): -3.1 ± 0.16
self-splicing fitness (ln) (37 °C): -1.91 ± 0.17

CAGUAGCAAUAUUACGCUAA
self-splicing fitness (ln) (30 °C): -2.26 ± 0.5
self-splicing fitness (ln) (37 °C): -2.38 ± 0.32

CAGUAGCAAUAUUACGCUGA
self-splicing fitness (ln) (30 °C): -2.07 ± 0.24
self-splicing fitness (ln) (37 °C): -1.95 ± 0.3

CAGUAGCAAUAUUACGCUGC
self-splicing fitness (ln) (37 °C): -1.92 ± 0.43

CAGUAGCAAUAUUACGGAAA
self-splicing fitness (ln) (30 °C): -3.56 ± 0.47
self-splicing fitness (ln) (37 °C): -3.19 ± 0.4

CAGUAGCAAUAUUACGGAAC
self-splicing fitness (ln) (37 °C): -2.72 ± 0.43

CAGUAGCAAUAUUACGGACA
self-splicing fitness (ln) (30 °C): -2.94 ± 0.17
self-splicing fitness (ln) (37 °C): -2.23 ± 0.17

CAGUAGCAAUAUUACGGACG
self-splicing fitness (ln) (30 °C): -0.216 ± 0.11
self-splicing fitness (ln) (37 °C): 0.702 ± 0.16

CAGUAGCAAUAUUACGGGAU
self-splicing fitness (ln) (30 °C): -4.35 ± 0.31
self-splicing fitness (ln) (37 °C): -3.18 ± 0.16

CAGUAGCAAUAUUACGGUGG
self-splicing fitness (ln) (30 °C): -0.646 ± 0.06
self-splicing fitness (ln) (37 °C): -0.131 ± 0.09

CAGUAGCAAUAUUACGUAAU
self-splicing fitness (ln) (30 °C): -4 ± 0.28
self-splicing fitness (ln) (37 °C): -2.63 ± 0.44

CAGUAGCAAUAUUACGUACG
self-splicing fitness (ln) (30 °C): 0.212 ± 0.13
self-splicing fitness (ln) (37 °C): 0.0818 ± 0.15

CAGUAGCAAUAUUACGUGGG
self-splicing fitness (ln) (30 °C): -3.85 ± 0.29
self-splicing fitness (ln) (37 °C): -1.92 ± 0.21

CAGUAGCAAUAUUACGUUUC
self-splicing fitness (ln) (30 °C): -3.64 ± 0.3
self-splicing fitness (ln) (37 °C): -2.69 ± 0.3

CAUAAGCAAUAUUACGAACA
self-splicing fitness (ln) (30 °C): -3.64 ± 0.4
self-splicing fitness (ln) (37 °C): -2.06 ± 0.38

CAUAAGCAAUAUUACGAAGA
self-splicing fitness (ln) (30 °C): -2.84 ± 0.37
self-splicing fitness (ln) (37 °C): -3.15 ± 0.33

CAUAAGCAAUAUUACGCAAU
self-splicing fitness (ln) (30 °C): -3.2 ± 0.25
self-splicing fitness (ln) (37 °C): -2.59 ± 0.36

CAUAAGCAAUAUUACGCGCC
self-splicing fitness (ln) (30 °C): -3.87 ± 0.4
self-splicing fitness (ln) (37 °C): -1.47 ± 0.34

CAUAAGCAAUAUUACGCGGU
self-splicing fitness (ln) (30 °C): -3.72 ± 0.24
self-splicing fitness (ln) (37 °C): -2.34 ± 0.17

CAUAAGCAAUAUUACGCUCU
self-splicing fitness (ln) (30 °C): -2.58 ± 0.19
self-splicing fitness (ln) (37 °C): -1.3 ± 0.12

CAUAAGCAAUAUUACGCUGC
self-splicing fitness (ln) (30 °C): -3.86 ± 0.21
self-splicing fitness (ln) (37 °C): -3.23 ± 0.3

CAUAAGCAAUAUUACGCUUC
self-splicing fitness (ln) (30 °C): -2.57 ± 0.27
self-splicing fitness (ln) (37 °C): -2.19 ± 0.3

CAUAAGCAAUAUUACGGACU
self-splicing fitness (ln) (30 °C): -3.64 ± 0.18
self-splicing fitness (ln) (37 °C): -2.97 ± 0.23

CAUAAGCAAUAUUACGGAGC
self-splicing fitness (ln) (30 °C): -3.94 ± 0.29
self-splicing fitness (ln) (37 °C): -3.35 ± 0.22

CAUAAGCAAUAUUACGGAGU
self-splicing fitness (ln) (30 °C): -3.14 ± 0.15
self-splicing fitness (ln) (37 °C): -2.35 ± 0.2

CAUAAGCAAUAUUACGGAUG
self-splicing fitness (ln) (30 °C): -3.14 ± 0.14
self-splicing fitness (ln) (37 °C): -2.17 ± 0.15
